Like-named read-outs stand apart in the source and are kept apart here. One block for each substance: values may come before it.
How the values were obtained:
[1] = molecular target: PDGFRα (Homo sapiens) (UniProt P16234); settings: cited from earlier work
Target sequence in this assay (P16234 24-528): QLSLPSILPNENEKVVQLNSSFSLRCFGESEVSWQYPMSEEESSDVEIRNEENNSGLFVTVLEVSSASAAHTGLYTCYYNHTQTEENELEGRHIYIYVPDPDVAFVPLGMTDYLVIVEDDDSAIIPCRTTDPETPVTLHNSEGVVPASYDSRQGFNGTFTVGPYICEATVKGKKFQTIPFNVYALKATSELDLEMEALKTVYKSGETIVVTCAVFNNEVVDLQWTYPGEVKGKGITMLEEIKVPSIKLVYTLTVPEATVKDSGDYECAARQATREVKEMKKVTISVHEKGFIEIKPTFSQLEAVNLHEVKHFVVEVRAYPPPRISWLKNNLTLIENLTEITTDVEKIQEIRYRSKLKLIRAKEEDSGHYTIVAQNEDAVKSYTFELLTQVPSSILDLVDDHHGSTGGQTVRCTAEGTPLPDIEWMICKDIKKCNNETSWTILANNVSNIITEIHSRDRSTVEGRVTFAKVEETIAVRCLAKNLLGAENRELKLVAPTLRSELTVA

[2] = molecular target: PDGFRα (Homo sapiens) (UniProt P16234); settings: cited from earlier work; remark: listed apart in the source
Target sequence in this assay (P16234 24-528): as above

[3] = molecular target: VEGFR1 (Homo sapiens) (UniProt P17948); assay: SPR; settings: cited from earlier work
[4] = molecular target: VEGFR2 (Homo sapiens) (UniProt P35968); assay: SPR; settings: cited from earlier work
[5] = molecular target: PDGFRα (Homo sapiens) (UniProt P16234); assay: SPR; BIAcore 3000, 25 °C, CM5 chip; receptor immobilised by amine coupling (~200-500 R.U.); ligand injected at 10, 20 and 40 nM, 30 uL/min, 10 min dissociation; HBS-EP pH 7.4 (10 mM HEPES, 3 mM EDTA, 150 mM NaCl, 0.005% TWEEN-20); angiopoietin-4 reference cell subtracted; global 1:1 Langmuir fit; χ2-to-Rmax > 1.0 or negative association curves taken as no true interaction
Target sequence in this assay (P16234 24-1089): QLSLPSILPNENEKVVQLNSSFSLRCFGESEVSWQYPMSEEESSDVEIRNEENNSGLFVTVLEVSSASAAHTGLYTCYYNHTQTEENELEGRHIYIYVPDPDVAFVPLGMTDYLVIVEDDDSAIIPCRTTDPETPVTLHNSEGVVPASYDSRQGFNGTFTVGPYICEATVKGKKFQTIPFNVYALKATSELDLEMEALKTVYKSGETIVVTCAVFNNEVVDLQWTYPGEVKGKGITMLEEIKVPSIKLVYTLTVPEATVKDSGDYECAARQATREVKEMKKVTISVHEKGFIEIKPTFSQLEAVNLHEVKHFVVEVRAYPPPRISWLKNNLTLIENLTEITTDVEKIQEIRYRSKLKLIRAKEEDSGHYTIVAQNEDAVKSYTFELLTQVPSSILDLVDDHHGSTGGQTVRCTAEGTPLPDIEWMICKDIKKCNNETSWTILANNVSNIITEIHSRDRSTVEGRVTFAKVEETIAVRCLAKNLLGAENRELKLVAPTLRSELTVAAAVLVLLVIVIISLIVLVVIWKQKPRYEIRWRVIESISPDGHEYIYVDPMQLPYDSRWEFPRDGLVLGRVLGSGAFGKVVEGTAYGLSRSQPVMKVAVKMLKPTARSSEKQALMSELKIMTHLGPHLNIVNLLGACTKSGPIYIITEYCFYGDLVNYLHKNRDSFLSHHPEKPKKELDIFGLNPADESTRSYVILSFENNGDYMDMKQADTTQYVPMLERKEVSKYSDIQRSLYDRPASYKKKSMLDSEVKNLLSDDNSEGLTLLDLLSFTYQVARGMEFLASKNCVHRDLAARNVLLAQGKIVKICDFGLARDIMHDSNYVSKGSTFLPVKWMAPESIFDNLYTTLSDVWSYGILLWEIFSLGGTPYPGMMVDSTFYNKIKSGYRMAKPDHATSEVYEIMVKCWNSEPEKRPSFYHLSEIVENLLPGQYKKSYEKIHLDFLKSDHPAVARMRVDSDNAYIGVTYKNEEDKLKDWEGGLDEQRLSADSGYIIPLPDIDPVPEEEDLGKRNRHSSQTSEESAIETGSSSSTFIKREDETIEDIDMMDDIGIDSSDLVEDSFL

[6] = molecular target: human recombinant PDGFRβ (human) (UniProt P09619); assay: as above
[7] = molecular target: VEGFR1 (Homo sapiens) (UniProt P17948); assay: SPR; BIAcore 3000, 25 °C, CM5 chip; receptor immobilised by amine coupling (~200-500 R.U.); ligand injected at 40, 20 and 10 nM in HBS-EP pH 7.4 (10 mM HEPES, 3 mM EDTA, 150 mM NaCl, 0.005% TWEEN-20); angiopoietin-4 reference cell subtracted; global 1:1 Langmuir fit; χ^2-to-Rmax < 1.0 taken as a true interaction
Target sequence in this assay (P17948 27-758): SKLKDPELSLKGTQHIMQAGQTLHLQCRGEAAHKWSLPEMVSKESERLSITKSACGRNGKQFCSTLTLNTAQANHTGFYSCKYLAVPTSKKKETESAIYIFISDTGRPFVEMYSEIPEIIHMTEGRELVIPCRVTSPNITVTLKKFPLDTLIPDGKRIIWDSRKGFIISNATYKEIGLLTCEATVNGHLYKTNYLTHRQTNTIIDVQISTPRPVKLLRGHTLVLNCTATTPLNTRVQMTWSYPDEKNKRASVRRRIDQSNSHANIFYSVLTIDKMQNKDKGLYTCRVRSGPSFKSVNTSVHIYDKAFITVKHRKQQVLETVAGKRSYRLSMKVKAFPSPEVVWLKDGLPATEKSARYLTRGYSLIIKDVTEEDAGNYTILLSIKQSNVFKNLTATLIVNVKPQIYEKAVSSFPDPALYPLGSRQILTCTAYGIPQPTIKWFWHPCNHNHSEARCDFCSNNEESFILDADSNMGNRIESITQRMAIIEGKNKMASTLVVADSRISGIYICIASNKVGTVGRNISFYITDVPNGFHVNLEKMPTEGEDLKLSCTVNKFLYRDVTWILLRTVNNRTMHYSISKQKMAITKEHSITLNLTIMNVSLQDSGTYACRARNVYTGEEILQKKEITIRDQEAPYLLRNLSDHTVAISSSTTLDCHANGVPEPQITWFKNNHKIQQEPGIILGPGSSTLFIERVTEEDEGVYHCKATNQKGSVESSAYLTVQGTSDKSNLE

[8] = molecular target: VEGFR2 (Homo sapiens) (UniProt P35968); assay: as above
Target sequence in this assay (P35968 20-764): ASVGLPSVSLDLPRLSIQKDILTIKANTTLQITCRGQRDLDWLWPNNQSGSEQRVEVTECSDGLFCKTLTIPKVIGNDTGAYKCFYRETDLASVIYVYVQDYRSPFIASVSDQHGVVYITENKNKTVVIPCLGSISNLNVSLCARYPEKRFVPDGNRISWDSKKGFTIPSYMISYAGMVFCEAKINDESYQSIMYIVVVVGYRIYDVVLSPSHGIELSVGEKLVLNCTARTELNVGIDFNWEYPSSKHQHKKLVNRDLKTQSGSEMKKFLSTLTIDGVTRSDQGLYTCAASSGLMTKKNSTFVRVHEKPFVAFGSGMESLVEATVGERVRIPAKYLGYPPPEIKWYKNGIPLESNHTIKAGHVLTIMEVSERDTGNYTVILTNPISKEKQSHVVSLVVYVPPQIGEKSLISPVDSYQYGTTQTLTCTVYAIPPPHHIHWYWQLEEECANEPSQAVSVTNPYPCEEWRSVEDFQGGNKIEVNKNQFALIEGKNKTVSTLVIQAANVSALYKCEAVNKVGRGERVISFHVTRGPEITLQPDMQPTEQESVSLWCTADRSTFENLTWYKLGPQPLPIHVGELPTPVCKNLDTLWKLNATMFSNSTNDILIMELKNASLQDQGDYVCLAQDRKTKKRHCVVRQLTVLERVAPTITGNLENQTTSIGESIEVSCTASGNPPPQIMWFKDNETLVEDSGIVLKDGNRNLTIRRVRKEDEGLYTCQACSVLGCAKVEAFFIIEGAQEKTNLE

[9] = molecular target: VEGFR1 (Homo sapiens) (UniProt P17948); assay: SPR; BIAcore 3000, 25 °C, CM5 chip; receptor immobilised by amine coupling (~200-500 R.U.); ligand injected at 10, 20 and 40 nM, 30 uL/min, 10 min dissociation; HBS-EP pH 7.4 (10 mM HEPES, 3 mM EDTA, 150 mM NaCl, 0.005% TWEEN-20); angiopoietin-4 reference cell subtracted; global 1:1 Langmuir fit; χ2-to-Rmax > 1.0 or negative association curves taken as no true interaction
Target sequence in this assay (P17948 27-758): as the sequence (P17948 27-758) above

[10] = molecular target: VEGFR2 (Homo sapiens) (UniProt P35968); assay: as above
Target sequence in this assay (P35968 20-764): as the sequence (P35968 20-764) above

human recombinant PDGFRβ (human), sequence (P09619 33-1106): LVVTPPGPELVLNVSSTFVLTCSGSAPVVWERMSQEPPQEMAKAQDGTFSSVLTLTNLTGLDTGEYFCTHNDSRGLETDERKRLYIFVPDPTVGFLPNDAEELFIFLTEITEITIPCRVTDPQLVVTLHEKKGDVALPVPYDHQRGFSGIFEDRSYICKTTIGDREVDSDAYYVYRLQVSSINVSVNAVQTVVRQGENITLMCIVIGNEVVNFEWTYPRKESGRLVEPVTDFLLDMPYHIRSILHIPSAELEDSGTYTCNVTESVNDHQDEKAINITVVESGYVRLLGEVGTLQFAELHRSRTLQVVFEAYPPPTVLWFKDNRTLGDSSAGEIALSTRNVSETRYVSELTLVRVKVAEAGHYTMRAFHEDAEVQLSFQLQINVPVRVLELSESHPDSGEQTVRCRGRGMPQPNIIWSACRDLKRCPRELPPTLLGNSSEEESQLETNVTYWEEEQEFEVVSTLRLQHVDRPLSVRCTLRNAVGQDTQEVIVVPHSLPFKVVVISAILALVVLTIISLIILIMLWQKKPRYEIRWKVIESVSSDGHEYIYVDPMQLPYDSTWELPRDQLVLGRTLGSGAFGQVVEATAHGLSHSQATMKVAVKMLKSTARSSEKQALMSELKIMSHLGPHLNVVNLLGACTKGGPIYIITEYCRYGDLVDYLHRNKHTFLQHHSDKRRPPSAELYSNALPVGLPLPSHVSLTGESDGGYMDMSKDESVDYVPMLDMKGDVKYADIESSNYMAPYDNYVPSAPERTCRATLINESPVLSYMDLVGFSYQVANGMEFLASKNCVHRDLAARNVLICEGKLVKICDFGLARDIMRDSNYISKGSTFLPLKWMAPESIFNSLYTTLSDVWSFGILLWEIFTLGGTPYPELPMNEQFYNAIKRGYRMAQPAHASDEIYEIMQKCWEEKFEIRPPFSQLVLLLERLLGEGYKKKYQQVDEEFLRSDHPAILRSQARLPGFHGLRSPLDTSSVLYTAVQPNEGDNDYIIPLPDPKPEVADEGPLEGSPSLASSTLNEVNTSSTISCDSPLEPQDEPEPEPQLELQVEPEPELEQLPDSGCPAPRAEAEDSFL
VEGF-A, sequence (P15692 whole entry): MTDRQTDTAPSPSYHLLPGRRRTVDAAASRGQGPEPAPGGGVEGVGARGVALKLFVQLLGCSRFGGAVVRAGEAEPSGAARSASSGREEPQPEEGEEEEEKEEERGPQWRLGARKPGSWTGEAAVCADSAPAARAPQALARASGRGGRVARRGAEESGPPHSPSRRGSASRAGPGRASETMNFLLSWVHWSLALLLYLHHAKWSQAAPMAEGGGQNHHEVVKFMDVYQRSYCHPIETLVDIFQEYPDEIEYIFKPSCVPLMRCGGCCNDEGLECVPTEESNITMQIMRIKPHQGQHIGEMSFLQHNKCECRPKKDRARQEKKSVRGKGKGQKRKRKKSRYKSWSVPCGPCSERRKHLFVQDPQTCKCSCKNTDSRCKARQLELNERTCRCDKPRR

Substance: PDGF-AA (from UniProt P04085)
- Kd [1]: 134000 pM

Substance: PDGF-BB (from UniProt P01127)
- Kd [2]: 150000 pM

Substance: VEGF-A (from UniProt P15692)
- Kd [3]: 7.5 pM
- Kd [4]: 52 pM

Continued, values first:

- koff [5]: 0.00045 s⁻¹
- kon [5]: 680 M⁻¹ s⁻¹
Substance: human recombinant PDGF-AA (from UniProt P04085 87-211) (ligand)

- koff [5]: 0.001 s⁻¹
- kon [5]: 1200 M⁻¹ s⁻¹
- koff [6]: 0.0029 s⁻¹
- kon [6]: 1300 M⁻¹ s⁻¹
Substance: human recombinant PDGF-AB (from UniProt P04085 87-211; P01127 82-190) (ligand)

- Kd [7]: 1 pM
- Kd [8]: 9.8 pM
- kon [8]: 1e+06 M⁻¹ s⁻¹
- koff [9]: 4e-07 s⁻¹
- kon [9]: 400000 M⁻¹ s⁻¹
- koff [10]: 9.5e-06 s⁻¹
- kon [10]: 970000 M⁻¹ s⁻¹
- koff [6]: 4e-06 s⁻¹
- kon [6]: 12000 M⁻¹ s⁻¹
Substance: human recombinant VEGFA (from UniProt P15692 1-395) (ligand)

From publication PMC5704011
